Assay results as given in US20260117274A1, “ORTHOGONALLY CROSSLINKED PROTEINS, METHODS OF MAKING, AND USES THEREOF” (The Research Foundation for The State University of New York, priority 2022, published 2026).
Changes are numbered by the printed parent chain. Numbers in names are those of the source.

B1: 12VC1(+10)-A13BeLaK-Y92K: monobody 12VC1(+10) encoding BeLaK; SEQ. ID. NO: 3 (protein)
chain: MGSSHHHHHHSSGTENLYFQGVSKVPTKLEVVAXTPTSLLIKWDAPAVTVKFYVITYGEKGHGVGAFQAFKVPGSKRTATIKGLKPGVDYTITVYARGYSKQGPYKPSPISINKRT
modifications: BeLaK non-natural residue at position 13; VARIANT 34 X is Ne-(tert-butoxycarbonyl) lysine or N6-(2-Oxoazetidine-1-carbonyl)-L-lysine
notes: monobody 12VC1(+10) encoding BeLaK; ID; NO: 3
B2: NSa1(+10)-A13BocK: non-crosslinked +10 charged monobody NSa1 encoding BocK at position 13; SEQ ID NO: 50 (protein)
chain: MGSSHHHHHHSSGTENLYFQGVSSKPTKLRVVRXTPTSLKIKWDAPAKTVDYYVITYGETGRGGYAWQRFEVPGSKRTATIKGLKPGVDYTITVYAGYKGYPTYYSSPISINYRT
modifications: BocK non-natural residue at position 13; VARIANT 34 X is 1/2-carboxy-4-aryltriazole lysine or Ne-(tert-butoxycarbonyl) lysine
B3: NSa1(+10)-A13CATK-1: +10 charged monobody NSa1 encoding CATK-1 at Ala-13, crosslinked to Tyr-92; SEQ ID NO: 50 (protein)
chain: B2 chain
modifications: CATK-1 at Ala13 crosslinked to Tyr92; VARIANT 34 X is 1/2-carboxy-4-aryltriazole lysine or Ne-(tert-butoxycarbonyl) lysine
B4: NSa1(+5)-A13BeLaK: supercharged NSa1 monobody encoding BeLaK; SEQ. ID. NO: 6 (protein)
chain: B2 chain with K42S, K48V, T60K, R62S, R69E, K82S
modifications: BeLaK non-natural residue at position 13; MOD_RES 34 X is N6-(2-Oxoazetidine-1-carbonyl)-L-lysine
notes: supercharged NSa1 monobody encoding BeLaK; ID; NO: 6

How the values were obtained:
[1] = Intramolecular (inter-strand) crosslinking yield of nanobody/monobodies by mass spectrometry; settings: UAA-encoded monobodies, MS characterization (Table 5)
Description: To probe whether CATK-1 is suitable for inter-strand cross-linking in proteins containing the disulfide bond, we selected a small protein called nanobody NB1, a prototypical single-chain VHH antibody that binds specifically to GFP protein. Based on NB1 structure, there is one disulfide bond formed between Cys-24 and Cys-98, close to a proposed orthogonal crosslinking site at Val-4 and Tyr-106 (FIG. 5a, left). To test orthogonal crosslinking, we placed CATK-1 at Val-4 position to target Tyr-106 located 5.6 Å away on the opposing strand. The BocK- and CATK-1-encoded NB1 were successfully expressed at yields of 14.3 mg L^−1 and 3.5 mg L^−1, respectively (FIG. 5b, left). […] Separately, we also examined the utility of CATK-1 in effecting intramolecular crosslinking in an antibody mimic called monobody. Due to their lack of cysteine residues, small size (˜10 kDa), and evolvable binding affinity and specificity, monobodies represent an ideal protein scaffold for targeting protein-protein interactions in the cytosols of mammalian cells. However, monobodies are cell impermeable, severely limiting their potential. One strategy to potentially overcome this limitation is to combine protein surface supercharging with orthogonal crosslinking to increase stability in the endosomes and thus improve cytosolic delivery. To this end, we designed an overall +10 charged monobody NSa1, termed NSa1(+10), using the Supercharge protocol on ROSIE Rosetta Online Server and added an amber codon at Ala-13 position. Based on the NSa1 structure, A13CATK-1 is well-positioned to react with the proximal Tyr-92 on the opposing strand at C-terminus (FIG. 5a, right). Accordingly, the wild-type and NSa1(+10) mutant proteins encoding CATK-1 or BocK were expressed and purified in good yields (4.1-6.9 mg L^1; FIG. 5b, right). […] The crosslink-containing fragment was identified by LC/MS after trypsin digestion (FIG. 21).
To assess if BeLaK is suitable for orthogonal crosslinking of domain antibodies, we selected NSa1, a monobody-based SHP2 inhibitor, and placed BeLaK at position-13 of the N-terminal β-strand. A panel of supercharged NSa1 mutants carrying overall charges of +6, +8, +11, and +18, respectively, were designed using Supercharge protocol on ROSIE Rosetta Online Server with native NSa1 (˜2 charge) as a template. […] Thus, the supercharged monobodies encoding either BeLaK or BocK were expressed in good yields (2.2˜7.2 mg L^−1; FIG. 42). […] Furthermore, as the positive charge increases, the mobility decreases, likely due to reduced overall negative charge after association with the SDS molecules. MS analysis further confirmed the identities of the supercharged NSa1 mutants (FIG. 34c). Since the unreacted BeLaK-encoded monobodies share the same mass as the crosslinked ones, we treated the purified monobodies with excess β-mercapto-ethanol for 7 days, which accelerates the hydrolysis of the unreacted β-lactam and in turn adds +18 Da to protein mass, and monitored the intact mass change. Using this method, we determined orthogonal crosslinking yields to range from 5% for native NSa1 to more than 50% for +8/+11/+18 mutants (FIG. 42). We attribute the higher yields to the increased conformational dynamics, which promotes proximity-driven crosslinking reactions. The crosslinking sites in +11 and +18 mutants were mapped to Lys-21 and Lys-19, respectively, residues on the nearby β-strand, based on the identified fragment masses after trypsin digestion (FIG. 34d, FIG. 50).
Crosslinking yield determination of BeLaK-encoded NSa1 variants. To quantify the extent of crosslinking, β-mercaptoethanol (20 mM) was added at a final concentration of 2.58 mM (100 equiv, 3 μL) to a solution of purified NSa1 variants (25 μM, 30 μL) in elution buffer (50 mM Na2HPO4, pH=7.4, 300 mM NaCl, 250 mM imidazole). The mixture was incubated at 37° C. overnight. Afterwards, the mixture was removed from the incubator and allowed to incubate at 25° C. for 1 week.

HeLa cells = test: Flow cytometry uptake of AF488-labeled NSa1(+10) proteins in HeLa cells; format: cell-based; settings: for percentage of fluorescent cells / MFI(R-1) Trial 1 / MFI(R-1) Trial 2 / MFI(R-1) Trial 3: 4 hours; for MFI(R-1) Trial 1 / MFI(R-1) Trial 2 / MFI(R-1) Trial 3: Protein 500 nM, 37°C
Experimental: (§1) To assess cellular uptake of the supercharged NSa1 proteins, we first removed the N-terminal His-tag after TEV cleavage to obtain two intact NSa1(+10) mutants encoding either BocK or CATK-1. We then reacted the mutants with Alexa Fluor 488-NHS modest labeling yield of 20-23% (FIG. 22). We then carried out a flow cytometry assay to quantify the uptake efficiency of the NSa1(+10) mutants. In brief, HeLa cells were treated with 100 or 500 nM of NSa1(+10) proteins at 37° C. for 4 hours. After washing cells three times with PBS containing 20 U/mL heparin to remove the surface-bound proteins, cells were collected and analyzed by flow cytometry. We observed significant monobody uptake when protein concentrations reached 500 nM. […] Since the kinetically stable protein folds show enhanced proteolytic resistance due to their rigid conformations with limited local openings, we assessed the effect of orthogonal crosslinking on proteolytic stability of the monobody. Thus, we incubated the CATK-1-crosslinked NSa1(+10) with cathepsin B ¾ an enzyme responsible for the degradation of protein cargoes in the endosomes ¾ and monitored monobody stability by mass spectrometry.
Fluorescent labeling of NSa1 and flow cytometry. After TEV-cleavage and further cation exchange chromatography, the purified NSa1 proteins were buffer exchanged into the basic buffer (100 mM Pi, 450 mM NaCl, pH 8.3), and then incubated with AF488-NHS (Lumiprobe) (2-fold molar, optimized to afford non-labeled and mono-labeled protein as major species) at 4° C. with gentle shaking in darkness overnight. Then, thorough dialysis was employed to remove excess dye and protein concentrations were determined by Nanodrop (eNSa1=28880 M^−1 cm^−1, eNSa1-plus10=27390 M^−1 cm^−1; CF280=0.11; Aprotein=A280−A493*CF280).
HeLa cells were seeded in a 48-well plate and grown in DMEM supplemented with 10% FBS and 10 μg/mL Gentamycin (Gibco) and 2 μg/mL Plasmocin at 37° C., 5% CO2 until ˜80% confluency. Cells were washed twice with pre-warmed PBS before switching to serum-free DMEM with Alexa-488 labeled protein. Cells were incubated at 37° C. for 4 hours. The cells were washed three times with PBS (including 20 U/mL heparin), trypsinized, and collected with 1.5 mL tubes. After brief centrifugation (400 g, 5 min) at room temperature, cells were collected and resuspended in PBS for flow cytometry analysis.

Cathepsin B = biological target: T1, Cathepsin B (Homo sapiens, UniProt P07858); test: NSa1 proteolytical stability assay (QTOF-LC/MS); format: in vitro ADME
T1 construct: purchased Novus Biologicals
Experimental: as §1
NSa1 proteolytical stability assay. In a 1.5-mL microcentrifuge tube, TEV-cleaved, purified NSa1 (1.5 μM in 50 mM phosphate, 500 mM NaCl, pH 7.0) was incubated with Cathepsin B (Novus Biologicals; 0.065 μM) at 37° C. […]

Row | Molecule | X-linking yield [1] [%] | percentage of fluorescent cells (HeLa cells; 500 nM) [%] | MFI(R-1) Trial 1 (HeLa cells) | MFI(R-1) Trial 2 (HeLa cells) | MFI(R-1) Trial 3 (HeLa cells) | higher mean fluorescence intensity than NSa1(+10)-A13BocK treated cells (HeLa cells; 500 nM) [%] | half-life relative to non-crosslinked NSa1(+10)-A13BocK (Cathepsin B; Cathepsin B, 37°C) | half-life (Cathepsin B; NSa1 1.5 μM with Cathepsin B 0.065 μM at 37°C) [h]
1 | B1 | 83 | – | – | – | – | – | – | –
2 | B2 | – | 13.6 | 6726.24 | 6507.23 | 6855.84 | – | – | –
3 | B3 | – | 14.8 | 9561.61 | 9020.17 | 9337.41 | 40 | three times longer | 2.1
4 | B4 | 43 | – | – | – | – | – | – | –
